Measured values taken from patent US20040082512A1.

Molecular target: ZOT receptor of rabbit ileum
Assay: cell-based or functional assay

Substance: FZI/0, synthetic octapeptide Gly Gly Val Leu Val Gln Pro Gly
- decrease of the effect of ZOT (6xHis-ZOT) on Rt of rabbit ileum after 20 min pre-treatment with FZI/0: 75%
- decrease of the effect of zonulinh on Rt of rabbit ileum after 20 min pre-treatment with FZI/0: 100%
- decrease of the effect of zonulini on Rt of rabbit ileum after 20 min pre-treatment with FZI/0: 97%
